From US20260274955A1 (JANUX THERAPEUTICS, published 2026)

Experiments:
[1] = molecular target: T1, Anti-CD28 Fab (SEQ ID NOs: 202, 203); experiment: phage ELISA, Fab on plate, CD28 antigen as competitor
T1 construct: biotinylated and captured on neutravidin coated plates in the phage ELISA
Description: After panning, phage infected bacteria were plated out and colonies picked into 96 well blocks. Clonal phage was then amplified and separated from bacterial cells via centrifugation.
Clonal phage were harvested as crude supernatants and screened via standard ELISAs. […] Prior to the addition of clonal phage, wells were incubated with blocking buffer and CD28 antigen or blocking buffer alone. Without washing or aspirating, clonal phage supernatants were then added to the wells and incubated for a short time. Wells were then washed followed by detection of bound phage using a horse radish conjugated anti-M13 antibody. Clonal phage of interest were then sent for sequence analysis.

[2] = molecular target: T1, Anti-CD28 Fab (SEQ ID NOs: 202, 203); experiment: phage ELISA, Fab on plate;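 note: crude clonal phage supernatants added to wells pretreated with blocking buffer with or without CD28 antigen, then bound phage read out via HRP-linked anti-M13 antibody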

T1 sequence (VH, as listed by the source, chain 1 of 2): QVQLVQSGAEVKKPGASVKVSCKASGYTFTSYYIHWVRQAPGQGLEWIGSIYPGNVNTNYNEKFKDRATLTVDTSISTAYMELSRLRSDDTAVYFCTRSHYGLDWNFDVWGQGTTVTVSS
T1 sequence (VL, as listed by the source, chain 2 of 2): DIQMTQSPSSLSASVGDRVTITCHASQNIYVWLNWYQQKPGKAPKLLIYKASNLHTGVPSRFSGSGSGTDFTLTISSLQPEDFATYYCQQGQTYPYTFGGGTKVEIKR

Binder | Anti-CD28 Fab signal in the presence of CD28 [1] | Anti-CD28 Fab (SEQ ID NOs: 202, 203) signal [2]
YCEGHLEIYLAKCL [Phage-655] | 0.07 | 1.32
YCDGHLSEYIGKCL [Phage-629] | 0.06 | 1.37
YCDGHDARYMEKCL [Phage-616] | 0.06 | 1.4
YCDGLFQLYMMKCL [Phage-624] | 0.07 | 1.38
YCEGHMEKYMEKCL [Phage-641] | 0.11 | 1.35
YCAGHMPIYMTKCL [Phage-667] | 0.08 | 1.3
YCAGHTSEYMSKCL [Phage-634] | 0.07 | 1.36
YCDGHAEQYMSKCL [Phage-623] | 0.07 | 1.38
YCEGHHPWYVQKCL [Phage-621] | 0.07 | 1.39
YCEGHSAVYMSKCL [Phage-663] | 0.06 | 1.31
YCDGHVKEYMYKCL [Phage-636] | 0.06 | 1.36
YCDGHSPEHMGKCL [Phage-615] | 0.09 | 1.4
YCDGHSLEYMLKCL [Phage-620] | 0.07 | 1.39
YCDGHAPEYIQKCL [Phage-625] | 0.06 | 1.38
YCDGHSEEFMWKCL [Phage-640] | 0.06 | 1.35
YCEGHLPMYMQKCL [Phage-660] | 0.08 | 1.31
YCAGHLPMYMQKCL [Phage-653] | 0.08 | 1.33
YCEGHLPMYMTKCL [Phage-686] | 0.06 | 1.25
YCDGHLLQYMHKCL [Phage-644] | 0.07 | 1.35
YCDGHQPQYMSKCL [Phage-628] | 0.09 | 1.38
YCEGHLPRYMLKCL [Phage-671] | 0.3 | 1.28
YCNGHLPEYMSKCI [Phage-618] | 0.07 | 1.4
YCEGHLPEYMIKCL [Phage-658] | 0.06 | 1.32
YCDGHMVQYMAKCL [Phage-639] | 0.07 | 1.36
YCEGHLVQYMQKCL [Phage-669] | 0.06 | 1.28
YCEGHDVQYMQKCL [Phage-749] | 0.08 | 1.06

Binder | Anti-CD28 Fab signal in the presence of CD28 [1] | Anti-CD28 Fab (SEQ ID NOs: 202, 203) signal [2]
YCDGHSEAYIEKCL [Phage-648] | 0.06 | 1.34
YCDGHAPQYMAKCI [Phage-665] | 0.06 | 1.3
YCDGHMKEYMLKCL [Phage-635] | 0.06 | 1.36
YCEGHLPAYMGKCI [Phage-632] | 0.09 | 1.37
YCSEHQIIFIQKCL [Phage-654] | 0.08 | 1.32
YCDGHIPEYMTKCL [Phage-661] | 0.06 | 1.31
YCDGHSETYLWKCL [Phage-631] | 0.1 | 1.37
YCEGHSLEYMMKCV [Phage-664] | 0.07 | 1.3
YCDGHRAEYMLKCL [Phage-668] | 0.08 | 1.29
YCDGHAPQYMRKCL [Phage-651] | 0.08 | 1.33
YCQGHSVEHMAKCL [Phage-666] | 0.06 | 1.3
YCEGHLPAYMWKCL [Phage-659] | 0.08 | 1.31
YCEGHSAEYIGKCL [Phage-738] | 0.07 | 1.08
YCDGHSKEYMAKCL [Phage-646] | 0.06 | 1.34
YCDGHLPLYMQKCF [Phage-652] | 0.1 | 1.33
YCSGHLPEYMDKCL [Phage-619] | 0.07 | 1.39
YCEGHSQLYMAKCL [Phage-630] | 0.07 | 1.37
YCAGHALEYMGKCL [Phage-657] | 0.06 | 1.32
YCDGHLPRYMAKCL [Phage-642] | 0.1 | 1.35
YCDGHLPDYMAKCL [Phage-712] | 0.07 | 1.17
YCEGHSPEYMHKCL [Phage-647] | 0.09 | 1.34
YCAGHASEYMAKCL [Phage-650] | 0.08 | 1.33
YCEGHLDEYLQKCL [Phage-626] | 0.07 | 1.38
YCMGHLPIYMEKCL [Phage-670] | 0.05 | 1.28
YCDGHLALYMWKCL [Phage-637] | 0.17 | 1.36
YCDGHLSIYMTKCL [Phage-638] | 0.07 | 1.36
